Earlier results in paper PMC12694644.

Target: IL-23 p19 (Homo sapiens) (UniProt Q9NPF7)
Sequence (Q9NPF7 20-189): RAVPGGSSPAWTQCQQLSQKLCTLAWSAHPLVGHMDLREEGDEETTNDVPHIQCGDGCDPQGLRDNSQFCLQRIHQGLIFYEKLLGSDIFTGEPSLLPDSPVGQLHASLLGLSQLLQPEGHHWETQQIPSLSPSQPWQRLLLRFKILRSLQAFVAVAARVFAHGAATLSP

Kd: 3.3 pM
Substance: Guselkumab
